This test concerns the target T1, Phosphopeptide TF1-Pser258 CKEN(pS)PLNVS (human).
T1 construct: Synthetic phosphopeptide
T1 peptide: CKEN[pS]PLNVS
The test is described as follows: peptide ELISA, optical density (FIG. 7). For orientation: ELISA stands for enzyme-linked immunosorbent assay.

Non-standard residues stand in square brackets, D forms with d. No end group written: not given here. pS = N[C@@H](COP(=O)(O)O)C(=O)O

B1: hybrid IgG2b anti-TF2-Pser253 monoclonal antibody MAb 680 (antibody, V domains shown)
VH: DVQLQESGPGLVKPSQSLSLTCTVTGYSITSDYAWNWIRQFPGNKLEWMGYISYSGSTSYNPSLKSRISITRDTSKNQFFLQLNSVTTEDTATYYCARIRGYLAMDYWGQGTSVTVSS
VL: DIVMTQAAFSNPVTLGTSASISCRSSKSLLHSNGITYLYWYLQKPGQSPQLLIYQMSNLASGVPDRFSSSGSGTDFTLRISRVEAEDVGVYYCAQNLELPPTFGGGTKLEIKR
notes: The Fab portion of IgM clone 4A6-4B5-1E2 was fused onto murine IgG2b light and heavy chains and made in HEK cells; also called M680; hybrid IgG anti-TF2-pser253 M680
Regarding B1, the binding result is “no binding”.

These data come from patent US20190004052A1 (published 2019).
